Paper PMC8724787, “The epitope arrangement on flavivirus particles contributes to Mab C10’s extraordinary neutralization breadth across Zika and dengue viruses” (Cell, 2021)

T1: DENV4_Burma/63632/1976 sE protein (aa 1-395) (Dengue virus 4 (strain Burma/63632/1976))
T1 construct: also called DENV4 sE
T1 chain: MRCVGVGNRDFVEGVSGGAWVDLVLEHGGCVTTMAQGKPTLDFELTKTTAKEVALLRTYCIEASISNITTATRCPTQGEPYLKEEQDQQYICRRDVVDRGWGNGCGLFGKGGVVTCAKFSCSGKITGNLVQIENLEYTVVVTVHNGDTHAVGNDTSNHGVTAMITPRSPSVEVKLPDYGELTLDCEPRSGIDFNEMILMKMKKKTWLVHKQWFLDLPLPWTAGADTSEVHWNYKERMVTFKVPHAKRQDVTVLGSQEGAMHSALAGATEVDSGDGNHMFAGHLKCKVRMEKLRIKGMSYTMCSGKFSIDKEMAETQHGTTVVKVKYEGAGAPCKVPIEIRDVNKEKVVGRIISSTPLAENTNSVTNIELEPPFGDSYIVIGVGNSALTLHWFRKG


Assays:
[1] = target: T2, ZIKV-H/PF/2013 sE protein (aa 1-404) (Zika virus (strain H/PF/2013)); assay: BLI
T2 construct: also called ZIKV sE; ZIKV (sE)2

[2] = target: T2, ZIKV-H/PF/2013 sE protein (aa 1-404); assay: SEC-MALS; Superdex 200 10/300 GL; Tris 50 mM pH 8.0, NaCl 500 mM; about 150 ug protein; proteins alone and in complex; settings: both partners purified
[3] = target: T1, DENV4_Burma/63632/1976 sE protein (aa …); assay: crystal structure; settings: both partners purified

Binder | stoichiometry N [2] | also measured
K^L66A C10 mAb mutant (IgG1) (antibody, V domains shown, IgG1) VH: EVQLVESGAEVKKPGASVKVSCKASGYTFTSYAMHWVRQAPGQRLEWMGWINAGNGNTKYSQKFQDRVTITRDTSASTAYMELSSLRSEDTAIYYCARDKVDDYGDYWFPTLWYFDYWGQGTLVTVSS VL: QSALTQPASVSGSPGQSITISCTGTSSDVGGFNYVSWFQQHPGKAPKLMLYDVTSRPSGVSSRFSGSASGNTASLTISGLQAEDEADYYCSSHTSRGTWVFGGGTKLTVL |  | other [1]: 2 fold
C10 intact bivalent IgG1 (human monoclonal antibody EDE1 C10) (antibody, V domains shown) VH: EVQLVESGAEVKKPGASVKVSCKASGYTFTSYAMHWVRQAPGQRLEWMGWINAGNGNTKYSQKFQDRVTITRDTSASTAYMELSSLRSEDTAIYYCARDKVDDYGDYWFPTLWYFDYWGQGTLVTVSS VL: QSALTQPASVSGSPGQSITISCTGTSSDVGGFNYVSWFQQHPGKAPKLMLYDVTSRPSGVSSRFSGSKSGNTASLTISGLQAEDEADYYCSSHTSRGTWVFGGGTKLTVL | 1 C10 molecule per sE dimer (2:2) | 
C10 single-chain variable fragment (scFv) (scFv, V domains shown) VH: EVQLVESGAEVKKPGASVKVSCKASGYTFTSYAMHWVRQAPGQRLEWMGWINAGNGNTKYSQKFQDRVTITRDTSASTAYMELSSLRSEDTAIYYCARDKVDDYGDYWFPTLWYFDYWGQGTLVTVSS VL: QSALTQPASVSGSPGQSITISCTGTSSDVGGFNYVSWFQQHPGKAPKLMLYDVTSRPSGVSSRFSGSKSGNTASLTISGLQAEDEADYYCSSHTSRGTWVFGGGTKLTVL |  | binding result [3]: binds
C10 bivalent F(ab')2 (other, human) VH: EVQLVESGAEVKKPGASVKVSCKASGYTFTSYAMHWVRQAPGQRLEWMGWINAGNGNTKYSQKFQDRVTITRDTSASTAYMELSSLRSEDTAIYYCARDKVDDYGDYWFPTLWYFDYWGQGTLVTVSS VL: QSALTQPASVSGSPGQSITISCTGTSSDVGGFNYVSWFQQHPGKAPKLMLYDVTSRPSGVSSRFSGSKSGNTASLTISGLQAEDEADYYCSSHTSRGTWVFGGGTKLTVL | 1 C10 molecule per sE dimer (2:2) | 
